Like-named read-outs stand apart in the source and are kept apart here.
Legend:
[1] = target: EGFP-CaMzt1 (C. albicans); assay: MST
[2] = target: Candida albicans γ-tubulin small complex (Caγ-TuSC) (C. albicans) (UniProt Q59PZ2); assay: SEC
[3] = target: Candida albicans γ-tubulin small complex (Caγ-TuSC) (C. albicans) (UniProt Q59PZ2); assay: SEC; remark: listed apart in the source
[4] = target: Caγ-TuSC–CaMzt1 complex (preassembled, co-expressed) (C. albicans) (UniProt Q59PZ2); assay: MST
[5] = target: CaMzt1-EGFP (C. albicans); assay: MST
[6] = target: EGFP-CaMzt1^D22A (C. albicans); assay: MST
[7] = target: MOZART1-EGFP (purified) (human) (UniProt Q08AG7); assay: MST
MOZART1-EGFP (purified) (human), sequence (Q08AG7 whole entry): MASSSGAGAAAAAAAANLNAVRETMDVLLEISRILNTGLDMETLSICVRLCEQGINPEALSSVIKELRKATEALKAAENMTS

[8] = target: Saccharomyces cerevisiae γ-tubulin small complex (Scγ-TuSC) (S. cerevisiae) (UniProt P38863); assay: SEC
SEC = target: the molecule itself; assay: SEC
GST–CaSpc72-N (1–420) = target: T1, GST–CaSpc72-N (1–420) (C. albicans, UniProt Q5AGV5 1-420); assay: SEC
T1 sequence (looked up): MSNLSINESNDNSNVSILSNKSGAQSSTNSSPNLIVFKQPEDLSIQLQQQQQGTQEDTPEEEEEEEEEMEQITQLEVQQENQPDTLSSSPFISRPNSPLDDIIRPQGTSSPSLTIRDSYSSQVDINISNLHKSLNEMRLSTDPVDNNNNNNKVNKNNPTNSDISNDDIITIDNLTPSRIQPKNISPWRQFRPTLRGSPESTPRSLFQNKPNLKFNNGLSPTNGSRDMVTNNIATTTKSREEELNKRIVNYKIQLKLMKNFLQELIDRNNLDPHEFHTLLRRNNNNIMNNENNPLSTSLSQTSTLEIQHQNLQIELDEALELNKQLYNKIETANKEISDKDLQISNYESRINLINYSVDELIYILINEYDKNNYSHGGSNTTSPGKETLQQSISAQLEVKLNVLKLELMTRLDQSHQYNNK

[9] = target: Candida albicans γ-tubulin small complex (Caγ-TuSC) (C. albicans, UniProt Q59PZ2 1-871; A0A1D8PS42 1-785; O93807 1-502); assay: co-purification after co-expression

Molecule “CaSpc110^CM1 fragment (117–176 aa) (domain or fragment)” has a Kd [1] of 1420 nM.

“Candida albicans γ-tubulin small complex (Caγ-TuSC), Q59PZ2 1-871; A0A1D8PS42 1-785; O93807 1-502” showed a percent oligomeric [2] of 5% and a percent oligomeric [3] of 30%.

“GST–CaSpc110-N (1–222) (domain or fragment)” showed a fold higher affinity than to Caγ-TuSC [4] of 3 fold, a fold lower affinity than with EGFP-CaMzt1 [5] of 3 fold and a Kd [1] of 187 nM. The fold reduction of affinity against EGFP-CaMzt1 [6] was 6 fold and the Kd [7] was 489 nM.

With “Saccharomyces cerevisiae γ-tubulin small complex (Scγ-TuSC), P38863 1-823; P53540 1-846; P53378 1-473” the percent oligomeric [8] was > 90%.

B1: EGFP-CaMzt1 (natural protein, C. albicans, UniProt A0A1D8PMH7 1-58, looked up)
chain: MPPDPNSMIVELARLMNCVQLDETVLQLCIKLLDEGANPQQLAKHILAIKKETNSILT
With B1 the “stoichiometry N” value (SEC) was 3 to 4 and the binding result (GST–CaSpc72-N (1–420)) was “binds”.

B2: GST-CaMzt1 (natural protein, C. albicans, UniProt A0A1D8PMH7 1-58, looked up)
chain: B1 chain
For B2, the “stoichiometry N” value (SEC) was 3 to 4.

B3: CaMzt1-3Flag (natural protein, C. albicans, UniProt A0A1D8PMH7 1-58, looked up)
chain: B1 chain
For B3, the “stoichiometry N” value [9] was 1.
